In patent US20190177366A1 (published 2019) one finds binding result and IC50 data, which are given here for 3 molecules.

As usually defined, the IC50 is the point on the concentration scale where inhibition reaches its midpoint. Low readings indicate inhibition by little substance, high ones a need for much substance.

In test [1] the target is T1, proprotein convertase subtilisin/kexin type 9 (PCSK9) (human, UniProt Q8NBP7 31-152).
T1 construct: domain: prodomain; Recombinant; tag not written as a part; also called rec.PCSK9; His-PCSK9
T1 sequence (Q8NBP7 31-152 limits assumed, chain 1 of 2): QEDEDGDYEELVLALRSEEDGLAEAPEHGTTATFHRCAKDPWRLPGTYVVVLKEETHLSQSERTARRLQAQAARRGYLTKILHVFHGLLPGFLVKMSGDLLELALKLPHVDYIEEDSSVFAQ
T1 sequence (Q8NBP7 153-692 limits assumed, chain 2 of 2): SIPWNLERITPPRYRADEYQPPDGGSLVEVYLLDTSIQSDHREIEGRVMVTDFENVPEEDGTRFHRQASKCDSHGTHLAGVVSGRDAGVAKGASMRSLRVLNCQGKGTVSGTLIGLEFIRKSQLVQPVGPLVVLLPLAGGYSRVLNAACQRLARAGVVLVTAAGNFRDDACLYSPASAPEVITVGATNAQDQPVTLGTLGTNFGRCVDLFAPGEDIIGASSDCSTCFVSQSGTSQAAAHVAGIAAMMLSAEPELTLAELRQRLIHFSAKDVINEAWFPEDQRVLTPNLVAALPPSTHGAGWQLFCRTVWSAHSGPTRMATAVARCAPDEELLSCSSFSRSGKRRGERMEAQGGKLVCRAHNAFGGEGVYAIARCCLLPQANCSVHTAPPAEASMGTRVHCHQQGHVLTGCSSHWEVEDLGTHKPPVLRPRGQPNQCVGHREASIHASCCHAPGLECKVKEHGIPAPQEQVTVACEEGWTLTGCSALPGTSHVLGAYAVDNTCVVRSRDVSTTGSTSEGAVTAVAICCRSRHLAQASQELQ
As to the kind of experiment: phage ELISA.

The target in test [2] is T2, human PCSK9 (proprotein convertase subtilisin/kexin type 9), His-tagged, full-length (human, UniProt A8T644 31-152; Q8NBP7 153-692, limits assumed).
T2 construct: The secreted protein is the prodomain plus the catalytic/Cys-rich part (N-terminus S153) after autocleavage; also called His-PCSK9; NARC-1
T2 sequence (A8T644 31-152 limits assumed, chain 1 of 2): as the sequence (Q8NBP7 31-152 limits assumed, chain 1 of 2) above
T2 sequence (A8T644 other isoform, or with tags, fused parts or gaps limits assumed, chain 2 of 2): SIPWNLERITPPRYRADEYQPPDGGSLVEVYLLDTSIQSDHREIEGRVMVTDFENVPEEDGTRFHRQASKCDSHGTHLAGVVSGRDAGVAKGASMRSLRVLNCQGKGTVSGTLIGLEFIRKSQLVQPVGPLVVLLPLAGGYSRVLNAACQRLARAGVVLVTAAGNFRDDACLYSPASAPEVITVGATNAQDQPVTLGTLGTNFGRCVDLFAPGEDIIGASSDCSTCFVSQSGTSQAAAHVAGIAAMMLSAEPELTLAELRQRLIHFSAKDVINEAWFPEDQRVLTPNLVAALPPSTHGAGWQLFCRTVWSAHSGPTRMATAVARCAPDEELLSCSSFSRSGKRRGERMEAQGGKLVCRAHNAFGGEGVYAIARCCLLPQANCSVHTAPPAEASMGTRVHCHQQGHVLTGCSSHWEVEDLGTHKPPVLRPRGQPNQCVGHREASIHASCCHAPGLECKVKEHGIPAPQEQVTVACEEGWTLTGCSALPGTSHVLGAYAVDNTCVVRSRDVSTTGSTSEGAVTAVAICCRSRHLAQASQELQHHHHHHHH
As to the kind of experiment: TR-FRET competition vs EGF(A)-Fc on His-PCSK9. In general terms: TR-FRET usually uses a lanthanide donor and a delayed reading to cut background.

The target of test [3] is T3, PCSK9Δhelix (human PCSK9 lacking the P' helix, His-tagged) (human, UniProt Q8NBP7 31-152; Q8NBP7 168-692).
T3 construct: Construct M1-Q692 with engineered TEV site (Y166, R167 deleted, ENLYFQS inserted between R165 and A168), cleaved by TEV protease; new N-terminus of the catalytic domain is S-A168; also called His-PCSK9Δhelix
T3 sequence (Q8NBP7 31-152, stated change not applied, chain 1 of 2): as the sequence (Q8NBP7 31-152 limits assumed, chain 1 of 2) above
T3 sequence (Q8NBP7 other isoform, or with tags, fused parts or gaps mutant, chain 2 of 2): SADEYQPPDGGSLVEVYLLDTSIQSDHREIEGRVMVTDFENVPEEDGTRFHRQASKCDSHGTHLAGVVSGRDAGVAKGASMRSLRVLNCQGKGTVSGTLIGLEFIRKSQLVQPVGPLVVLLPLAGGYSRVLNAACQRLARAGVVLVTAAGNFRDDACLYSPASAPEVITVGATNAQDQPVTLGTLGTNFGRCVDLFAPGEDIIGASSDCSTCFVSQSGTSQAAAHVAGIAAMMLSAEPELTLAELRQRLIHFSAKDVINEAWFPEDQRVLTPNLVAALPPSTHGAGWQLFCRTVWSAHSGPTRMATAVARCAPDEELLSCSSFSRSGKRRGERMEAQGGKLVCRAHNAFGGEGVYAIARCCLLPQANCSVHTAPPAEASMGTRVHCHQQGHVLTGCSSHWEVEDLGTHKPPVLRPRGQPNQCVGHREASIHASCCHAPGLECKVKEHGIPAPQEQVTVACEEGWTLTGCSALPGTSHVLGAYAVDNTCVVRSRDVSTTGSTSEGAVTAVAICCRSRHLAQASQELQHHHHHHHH
As to the kind of experiment: TR-FRET competition vs Ab20 on His-PCSK9Δhelix.

The target in test [4] is T4, His-tagged, full-length PCSK9 (human, UniProt Q8NBP7 31-152; Q8NBP7 153-692).
T4 construct: Target protein of the PCSK9/EGF(A) TR-FRET assay (10 nM); also called His-PCSK9
T4 sequence (Q8NBP7 31-152, chain 1 of 2): as the sequence (Q8NBP7 31-152 limits assumed, chain 1 of 2) above
T4 sequence (Q8NBP7 other isoform, or with tags, fused parts or gaps, chain 2 of 2): as the sequence (A8T644 other isoform, or with tags, fused parts or gaps limits assumed, chain 2 of 2) above
As to the kind of experiment: TR-FRET competition, His-PCSK9; competitor EGF(A)-Fc.

A value given as a limit tells only on which side of the number the result lay.

B1: Phage-displayed Pep2-8 (on p8) (peptide)
chain: TVFTSWEEYLDWV
notes: Peptide fused to the N-terminus of p8 on M13 phage; also called phage displaying Pep2-8; not shown: M13 major coat protein p8
B1: the binding result in test [1] is listed as “binds”.

Regarding Ac-DLMPWNLVRIALLR-NH2 [Compound 57], the results for the concentration for half-maximal inhibition (IC50) in test [2] and in test [3] were greater than 50 µM and 49.5 µM, respectively.

In test [4], Ac-SGDLMPWNLVRIGLLR-NH2 [Compound 122] showed an IC50 of no less than 50 µM.
